Assay results from publication doi:10.1101/2024.07.29.605598 (bioRxiv, 2024).
Where “and” joins values, the source holds several entries; their conditions need not be identical. Identical values can stand only once.

B1: Drosophila melanogaster GTPase Rap1 G12V (amino acids 1-180), GMPPNP-loaded (enzyme, UniProt P08645 1-180, looked up)
chain: MREYKIVVLGSVGVGKSALTVQFVQCIFVEKYDPTIEDSYRKQVEVDGQQCMLEILDTAGTEQFTAMRDLYMKNGQGFVLVYSITAQSTFNDLQDLREQILRVKDTDDVPMVLVGNKCDLEEERVVGKELGKNLATQFNCAFMETSAKAKVNVNDIFYDLVRQINKKSPEKKQKKPKKSL
B2: Drosophila melanogaster Cno RA2 domain (amino acids 222-350) (domain or fragment, UniProt Q24279 222-350, looked up)
chain: TRSISNPEAVMRRRRQQKLEKKLQQFRSRDGGPDTGGTLKIYGESLCQDVPYKTLLLSIRDCAQAVVREMLTKYGLEKADPLHYCLVQVNSDGTEYILDDDECPLSILMNHPTSRGSIMFHVRRRPADS
B3: Drosophila melanogaster Cno RA1 domain (amino acids 1-137) (domain or fragment, UniProt Q24279 1-137, looked up)
chain: MSHDKKMLDREAVRSVIQQWNANRLDLFALSEPDENLLFHGVMRFYFQDAGQKVATKCIRVASDATVTDVIDTLIEKFRPDMRMLSVPNYALYEVHANGEERRLNADEKPLLVQLNWHIDDREGRFLLKNIDQKTTP

Assays:
[1] = biological target: B3; experiment: SEC-MALS
[2] = biological target: B3; experiment: ITC
[3] = biological target: B2; experiment: ITC
[4] = biological target: B1; experiment: ITC

stoichiometry N [1]	dH [2]	stoichiometry N [2]	dH [3]	stoichiometry N [3]	Kd [4]	Binder
1	-18.3 kJ/mol and -20 kJ/mol	0.717	-12.9 kJ/mol and -9.11 kJ/mol and -11.4 kJ/mol	0.755 and 0.73 and 0.63	–	B1
–	–	–	–	–	8.8 µM and 7.9 µM and 8.7 µM	B2
–	–	–	–	–	4.5 µM and 5.9 µM	B3
